The values below come from patent publication US8129349B2, “Treatment of disease by inducing cell apoptosis” (The Regents of the University of California, priority 2000, dated 2012).

One experiment deals with procaspase 8 (Homo sapiens, UniProt Q14790). Description: Co-immunoprecipitation of purified recombinant procaspase 8 with recombinant C/EBPβ peptides. Type of experiment: binding. Details: 21 amino acid linker (vector-derived) (N); purchased Alexis Biochemicals 201-041-C005. Conditions: peptides 200 μM, procaspase 8 0.12 μg, quantitated by densitometry. Here is the method:
(§1) FIG. 5 provides results showing the direct association of C/EBPβ-Glu^217 with procaspases 1 and 8. […] Enzyme activity was measured in the absence (control) or presence of C/EBPβ peptides (200 μM) for 2 h, using a procaspases 1 (1U) (not shown) and 8 (0.2 μg) activity assay. Values are presented as the mean±one half the range of duplicates. Panel C provides results for cells cultured on a collagen type I matrix and incubated with the indicated cell permeant, purified synthetic N-acetyl, C-aldehyde C/EBPβ tetra-peptides (10 μM) or with recombinant C/EBPβ-HA peptides as indicated, together with the Chariot reagent (Active Motif) for 4 h. Control cells were incubated without peptides (P<0.05 for all peptides containing Ala^217).
(§2) Purified recombinant C/EBPβ peptides, expressed as known in the art (See, Descombes et al., supra; and Buck et al. (1994), supra), and purified synthetic N-acetyl, C-aldehyde tetrapeptides (200 μM) (American Peptide Company) were assayed for their ability to inhibit the activity of purified human recombinant caspases 1 (catalogue # 201-056) and 8 (catalogue # 201-041-C005) (Alexis Biochemicals). The sequence of caspase 8 includes Ser217 through Asp479 cloned into an expression vector containing a 21 amino acid linker at the N-terminus. Thus, the prodomain (first 220 amino acids) is essentially missing. […] Caspase activity was determined by the release of the p-nitroaniline colorimetric (Alexis Biochemicals) substrate for caspase 1 (catalogue # 260-026) or 8 (catalogue # 260-045) within the linear part of the kinetic assay (Thornberry et al. (1997), supra; Stennicke and Salvesen, supra). […]
To delineate the role of C/EBPβ on the activation of procaspases 1 and 8, the self-activation of recombinant procaspases 1 and 8 was induced in vitro (Wilson et al., supra; Margolin et al., supra; and Earnshaw et al., supra), and the effect of purified recombinant C/EBPβ peptides, produced as described previously (Descombes et al., supra; and Buck et al., (1994), supra) on this process was determined. […]

A further experiment addresses T1, caspase 8 (Homo sapiens, UniProt Q14790).
T1 construct: 21 amino acid linker (vector-derived) (N); purchased Alexis Biochemicals 201-041-C005
In words: In vitro self-activation of recombinant caspase 8. The experiment is classed as biochemical. The conditions noted are these: peptides 200 μM, 2 h, procaspase 8 (0.2 μg), colorimetric substrate. Here is the method:
as §1
FIG. 7 provides data showing that phosphorylation of rat C/EBPβ on Ser^105 prevents stellate cell apoptosis. Panel A provides results for mouse stellate cells transfected as described herein (See, FIG. 2), with mutant p90RSK or treated with lactacystin (10 μM) (closed bars), and co-transfected with CMV-rC/EBPβ-Asp^105 (1 μg each) (open bars) as indicated. Annexin-V-PE binding was determined as described for FIG. 2 (P<0.05 for rC/EBPβ-Asp^105). Panel B provides results of an annexin-V-PE assay for stellate cells from C/EBPβ^+/+ (closed circles) and rC/EBPβ-Asp^105 transgenic (open circles) mice treated with lactacystin (0-30 μM). The annexin-V-PE assay was performed 6 hours after treatment began (P<0.05 for rC/EBPβ-Asp^105 transgenic mice for 5-25 μM lactacystin). Panel C provides results for rC/EBPβ-HA constructs (0.3 μg) transfected into rat stellate cells. The expressed peptides were immunoprecipitated with anti-HA antibodies. Using a specific antibody, rCEBPβ-PSer^105 was detected only in cells that expressed wild-type rC/EBPβ. […] Reciprocal immunoprecipitations confirmed these associations. […] Enzyme activity was measured using a colorimetric substrate as described in the Examples. […]
as §2, with “Biochemicals).” for “Biochemicals). The sequence of caspase 8 includes Ser217 through Asp479 cloned into an expression vector containing a 21 amino acid linker at the N-terminus. Thus, the prodomain (first 220 amino acids) is essentially missing.”

T1 sequence (Q14790 217-479): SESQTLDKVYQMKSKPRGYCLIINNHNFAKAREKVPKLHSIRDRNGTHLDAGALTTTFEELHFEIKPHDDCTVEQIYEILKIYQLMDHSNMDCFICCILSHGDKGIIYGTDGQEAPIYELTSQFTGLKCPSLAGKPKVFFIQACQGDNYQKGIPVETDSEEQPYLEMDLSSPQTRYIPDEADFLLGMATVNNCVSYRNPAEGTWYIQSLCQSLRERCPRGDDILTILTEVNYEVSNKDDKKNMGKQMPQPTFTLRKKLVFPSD
procaspase 8, sequence (Q14790 217-479): as above

B1: C/EBPβ-Glu^217: modified murine C/EBPβ with mutation of Thr^217 to glutamic acid (SEQ ID NO:4), phosphorylation mimic (protein, listed as Mus musculus)
chain: MHRLLAWDAACLPPPPAAFRPMEVANFYYEPDCLAYGAKAARAAPRAPAAEPAIGEHERAIDFSPYLEPLAPAADFAAPAPAHHDFLSDLFADDYGAKPSKKPADYGYVSLGRAGAKAAPPACFPPPPPAALKAEPGFEPADCKRADDAPAMAAGFPFALRAYLGYQATPSGSSGSLSTSSSSSPPGTPSPADAKAAPAACFAGPPAAPAKAKAKKZVDKLSDEYKMRRERNNIAVRKSRDKAKMRNLETQHKVLELTAENERLQKKVEQLSRELSTLRNLFKQLPEPLLASAGHC
As for B1, the “Co-immunoprecipitation of procaspase 8, fold more than the Ala^217 peptides” value in the experiment with procaspase 8 is 12 fold. Moreover, the “Inhibition of in vitro self-activation of caspase 8” value with caspase 8 is on record as “inhibited the in vitro self-activation”.
